Data published in patent US20140087995A1 (published 2014).
Numbered stars: 1 amine (or outer) side, 2 acyl side, 3 side chain; on linkers, the order of the positions; unused ones are H or OH. Bridge positions count the residues as written; N and C are the ends. Side chains are listed from the residue outwards. Ends that are not written are not given here. * marks the point of attachment. C20 diacid = O=C(O)CCCCCCCCCCCCCCCCCCC(=O)*; γGlu = O=C(O)[C@H](CCC(=O)[*:2])N[*:1]; AEEA = NCCOCCOCC(=O)O

T1: human calcitonin receptor (human, UniProt P30988 25-474)
T1 sequence (looked up): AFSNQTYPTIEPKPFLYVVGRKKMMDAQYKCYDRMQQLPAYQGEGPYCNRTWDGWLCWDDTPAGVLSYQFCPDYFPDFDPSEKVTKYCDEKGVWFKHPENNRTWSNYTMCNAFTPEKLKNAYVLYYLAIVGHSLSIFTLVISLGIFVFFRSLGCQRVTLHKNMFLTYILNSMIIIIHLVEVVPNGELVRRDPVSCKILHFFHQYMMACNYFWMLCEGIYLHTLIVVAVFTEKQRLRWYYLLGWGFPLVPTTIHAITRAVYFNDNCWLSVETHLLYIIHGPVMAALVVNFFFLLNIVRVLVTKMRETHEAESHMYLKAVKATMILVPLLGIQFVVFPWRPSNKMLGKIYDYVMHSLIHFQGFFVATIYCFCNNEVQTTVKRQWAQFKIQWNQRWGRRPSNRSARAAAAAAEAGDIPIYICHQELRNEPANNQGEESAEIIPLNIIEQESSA

B1: N^ε1N^ε1-[(4S)-4-carboxy-4-(19-carboxynonadecanoylamino)butanoyl]-[His14,Arg17,Pro21,Pro27,Pro34]-h-amylin (peptide)
peptide: K([γGlu-C20 diacid])CNTATCATQRLAHFLRHSSPNFGAIPSSTNVGPNTY-NH2
modifications: disulfide 2-7; N-terminus assumed
SMILES: CC[C@H](C)[C@H](NC(=O)[C@H](C)NC(=O)CNC(=O)[C@H](Cc1ccccc1)NC(=O)[C@H](CC(N)=O)NC(=O)[C@@H]1CCCN1C(=O)[C@H](CO)NC(=O)[C@H](CO)NC(=O)[C@H](Cc1c[nH]cn1)NC(=O)[C@H](CCCNC(=N)N)NC(=O)[C@H](CC(C)C)NC(=O)[C@H](Cc1ccccc1)NC(=O)[C@H](Cc1c[nH]cn1)NC(=O)[C@H](C)NC(=O)[C@H](CC(C)C)NC(=O)[C@H](CCCNC(=N)N)NC(=O)[C@H](CCC(N)=O)NC(=O)[C@@H](NC(=O)[C@H](C)NC(=O)[C@@H]1CSSC[C@H](NC(=O)[C@@H](N)CCCCNC(=O)CC[C@H](NC(=O)CCCCCCCCCCCCCCCCCCC(=O)O)C(=O)O)C(=O)N[C@@H](CC(N)=O)C(=O)N[C@@H]([C@@H](C)O)C(=O)N[C@@H](C)C(=O)N[C@@H]([C@@H](C)O)C(=O)N1)[C@@H](C)O)C(=O)N1CCC[C@H]1C(=O)N[C@@H](CO)C(=O)N[C@@H](CO)C(=O)N[C@H](C(=O)N[C@@H](CC(N)=O)C(=O)N[C@H](C(=O)NCC(=O)N1CCC[C@H]1C(=O)N[C@@H](CC(N)=O)C(=O)N[C@H](C(=O)N[C@@H](Cc1ccc(O)cc1)C(N)=O)[C@@H](C)O)C(C)C)[C@@H](C)O
notes: also called compound 67
B2: N^ε1-[(4S)-4-carboxy-4-(19-carboxynonadecanoylamino)butanoyl]-[His14,Arg17,Pro21,Pro27]-h-amylin (peptide)
peptide: K([γGlu-C20 diacid])CNTATCATQRLAHFLRHSSPNFGAIPSSTNVGSNTY-NH2
modifications: disulfide 2-7; N-terminus assumed
SMILES: CC[C@H](C)[C@H](NC(=O)[C@H](C)NC(=O)CNC(=O)[C@H](Cc1ccccc1)NC(=O)[C@H](CC(N)=O)NC(=O)[C@@H]1CCCN1C(=O)[C@H](CO)NC(=O)[C@H](CO)NC(=O)[C@H](Cc1c[nH]cn1)NC(=O)[C@H](CCCNC(=N)N)NC(=O)[C@H](CC(C)C)NC(=O)[C@H](Cc1ccccc1)NC(=O)[C@H](Cc1c[nH]cn1)NC(=O)[C@H](C)NC(=O)[C@H](CC(C)C)NC(=O)[C@H](CCCNC(=N)N)NC(=O)[C@H](CCC(N)=O)NC(=O)[C@@H](NC(=O)[C@H](C)NC(=O)[C@@H]1CSSC[C@H](NC(=O)[C@@H](N)CCCCNC(=O)CC[C@H](NC(=O)CCCCCCCCCCCCCCCCCCC(=O)O)C(=O)O)C(=O)N[C@@H](CC(N)=O)C(=O)N[C@@H]([C@@H](C)O)C(=O)N[C@@H](C)C(=O)N[C@@H]([C@@H](C)O)C(=O)N1)[C@@H](C)O)C(=O)N1CCC[C@H]1C(=O)N[C@@H](CO)C(=O)N[C@@H](CO)C(=O)N[C@H](C(=O)N[C@@H](CC(N)=O)C(=O)N[C@H](C(=O)NCC(=O)N[C@@H](CO)C(=O)N[C@@H](CC(N)=O)C(=O)N[C@H](C(=O)N[C@@H](Cc1ccc(O)cc1)C(N)=O)[C@@H](C)O)C(C)C)[C@@H](C)O
notes: also called compound 70
B3: N^ε1-[2-[2-[2-(19-carboxynonadecanoylamino)ethoxy]ethoxy]acetyl]-[His14,Arg17,Pro21,Pro27]-h-amylin (peptide)
peptide: K([AEEA-C20 diacid])CNTATCATQRLAHFLRHSSPNFGAIPSSTNVGSNTY-NH2
modifications: disulfide 2-7; N-terminus assumed
SMILES: CC[C@H](C)[C@H](NC(=O)[C@H](C)NC(=O)CNC(=O)[C@H](Cc1ccccc1)NC(=O)[C@H](CC(N)=O)NC(=O)[C@@H]1CCCN1C(=O)[C@H](CO)NC(=O)[C@H](CO)NC(=O)[C@H](Cc1c[nH]cn1)NC(=O)[C@H](CCCNC(=N)N)NC(=O)[C@H](CC(C)C)NC(=O)[C@H](Cc1ccccc1)NC(=O)[C@H](Cc1c[nH]cn1)NC(=O)[C@H](C)NC(=O)[C@H](CC(C)C)NC(=O)[C@H](CCCNC(=N)N)NC(=O)[C@H](CCC(N)=O)NC(=O)[C@@H](NC(=O)[C@H](C)NC(=O)[C@@H]1CSSC[C@H](NC(=O)[C@@H](N)CCCCNC(=O)COCCOCCNC(=O)CCCCCCCCCCCCCCCCCCC(=O)O)C(=O)N[C@@H](CC(N)=O)C(=O)N[C@@H]([C@@H](C)O)C(=O)N[C@@H](C)C(=O)N[C@@H]([C@@H](C)O)C(=O)N1)[C@@H](C)O)C(=O)N1CCC[C@H]1C(=O)N[C@@H](CO)C(=O)N[C@@H](CO)C(=O)N[C@H](C(=O)N[C@@H](CC(N)=O)C(=O)N[C@H](C(=O)NCC(=O)N[C@@H](CO)C(=O)N[C@@H](CC(N)=O)C(=O)N[C@H](C(=O)N[C@@H](Cc1ccc(O)cc1)C(N)=O)[C@@H](C)O)C(C)C)[C@@H](C)O
notes: also called compound 90
B4: N^ε1-[(4S)-4-carboxy-4-[[(4S)-4-carboxy-4-(19-carboxynonadecanoylamino)butanoyl]amino]butanoyl]-[His14,Arg17,Pro21,Pro27]-h-amylin (peptide)
peptide: K([γGlu-γGlu-C20 diacid])CNTATCATQRLAHFLRHSSPNFGAIPSSTNVGSNTY-NH2
modifications: disulfide 2-7; N-terminus assumed
SMILES: CC[C@H](C)[C@H](NC(=O)[C@H](C)NC(=O)CNC(=O)[C@H](Cc1ccccc1)NC(=O)[C@H](CC(N)=O)NC(=O)[C@@H]1CCCN1C(=O)[C@H](CO)NC(=O)[C@H](CO)NC(=O)[C@H](Cc1c[nH]cn1)NC(=O)[C@H](CCCNC(=N)N)NC(=O)[C@H](CC(C)C)NC(=O)[C@H](Cc1ccccc1)NC(=O)[C@H](Cc1c[nH]cn1)NC(=O)[C@H](C)NC(=O)[C@H](CC(C)C)NC(=O)[C@H](CCCNC(=N)N)NC(=O)[C@H](CCC(N)=O)NC(=O)[C@@H](NC(=O)[C@H](C)NC(=O)[C@@H]1CSSC[C@H](NC(=O)[C@@H](N)CCCCNC(=O)CC[C@H](NC(=O)CC[C@H](NC(=O)CCCCCCCCCCCCCCCCCCC(=O)O)C(=O)O)C(=O)O)C(=O)N[C@@H](CC(N)=O)C(=O)N[C@@H]([C@@H](C)O)C(=O)N[C@@H](C)C(=O)N[C@@H]([C@@H](C)O)C(=O)N1)[C@@H](C)O)C(=O)N1CCC[C@H]1C(=O)N[C@@H](CO)C(=O)N[C@@H](CO)C(=O)N[C@H](C(=O)N[C@@H](CC(N)=O)C(=O)N[C@H](C(=O)NCC(=O)N[C@@H](CO)C(=O)N[C@@H](CC(N)=O)C(=O)N[C@H](C(=O)N[C@@H](Cc1ccc(O)cc1)C(N)=O)[C@@H](C)O)C(C)C)[C@@H](C)O
notes: also called compound 92
B5: N{-1}-[(4S)-4-carboxy-4-(19-carboxynonadecanoylamino)butanoyl]-Gly[Arg1,His14,Arg17,Pro21,Pro27]-h-amylin (peptide)
peptide: {C20 diacid-γGlu}-GRCNTATCATQRLAHFLRHSSPNFGAIPSSTNVGSNTY-NH2
modifications: disulfide 3-8
SMILES: CC[C@H](C)[C@H](NC(=O)[C@H](C)NC(=O)CNC(=O)[C@H](Cc1ccccc1)NC(=O)[C@H](CC(N)=O)NC(=O)[C@@H]1CCCN1C(=O)[C@H](CO)NC(=O)[C@H](CO)NC(=O)[C@H](Cc1c[nH]cn1)NC(=O)[C@H](CCCNC(=N)N)NC(=O)[C@H](CC(C)C)NC(=O)[C@H](Cc1ccccc1)NC(=O)[C@H](Cc1c[nH]cn1)NC(=O)[C@H](C)NC(=O)[C@H](CC(C)C)NC(=O)[C@H](CCCNC(=N)N)NC(=O)[C@H](CCC(N)=O)NC(=O)[C@@H](NC(=O)[C@H](C)NC(=O)[C@@H]1CSSC[C@H](NC(=O)[C@H](CCCNC(=N)N)NC(=O)CNC(=O)CC[C@H](NC(=O)CCCCCCCCCCCCCCCCCCC(=O)O)C(=O)O)C(=O)N[C@@H](CC(N)=O)C(=O)N[C@@H]([C@@H](C)O)C(=O)N[C@@H](C)C(=O)N[C@@H]([C@@H](C)O)C(=O)N1)[C@@H](C)O)C(=O)N1CCC[C@H]1C(=O)N[C@@H](CO)C(=O)N[C@@H](CO)C(=O)N[C@H](C(=O)N[C@@H](CC(N)=O)C(=O)N[C@H](C(=O)NCC(=O)N[C@@H](CO)C(=O)N[C@@H](CC(N)=O)C(=O)N[C@H](C(=O)N[C@@H](Cc1ccc(O)cc1)C(N)=O)[C@@H](C)O)C(C)C)[C@@H](C)O
notes: also called compound 99
B6: N^-1-[(4S)-4-carboxy-4-(19-carboxynonadecanoylamino)butanoyl]-Gly[Arg1,His14,Arg17,Pro21,Pro27,His34]-h-amylin (peptide)
peptide: {C20 diacid-γGlu}-GRCNTATCATQRLAHFLRHSSPNFGAIPSSTNVGHNTY-NH2
modifications: disulfide 3-8
SMILES: CC[C@H](C)[C@H](NC(=O)[C@H](C)NC(=O)CNC(=O)[C@H](Cc1ccccc1)NC(=O)[C@H](CC(N)=O)NC(=O)[C@@H]1CCCN1C(=O)[C@H](CO)NC(=O)[C@H](CO)NC(=O)[C@H](Cc1c[nH]cn1)NC(=O)[C@H](CCCNC(=N)N)NC(=O)[C@H](CC(C)C)NC(=O)[C@H](Cc1ccccc1)NC(=O)[C@H](Cc1c[nH]cn1)NC(=O)[C@H](C)NC(=O)[C@H](CC(C)C)NC(=O)[C@H](CCCNC(=N)N)NC(=O)[C@H](CCC(N)=O)NC(=O)[C@@H](NC(=O)[C@H](C)NC(=O)[C@@H]1CSSC[C@H](NC(=O)[C@H](CCCNC(=N)N)NC(=O)CNC(=O)CC[C@H](NC(=O)CCCCCCCCCCCCCCCCCCC(=O)O)C(=O)O)C(=O)N[C@@H](CC(N)=O)C(=O)N[C@@H]([C@@H](C)O)C(=O)N[C@@H](C)C(=O)N[C@@H]([C@@H](C)O)C(=O)N1)[C@@H](C)O)C(=O)N1CCC[C@H]1C(=O)N[C@@H](CO)C(=O)N[C@@H](CO)C(=O)N[C@H](C(=O)N[C@@H](CC(N)=O)C(=O)N[C@H](C(=O)NCC(=O)N[C@@H](Cc1c[nH]cn1)C(=O)N[C@@H](CC(N)=O)C(=O)N[C@H](C(=O)N[C@@H](Cc1ccc(O)cc1)C(N)=O)[C@@H](C)O)C(C)C)[C@@H](C)O
notes: also called compound 100

Target: T1, human calcitonin receptor
Assay: cell-based or functional assay

Row | Binder | hCTR funct. EC50 [nM]
1 | B1 | 0.354
2 | B2 | 0.715
3 | B3 | 0.236
4 | B4 | 2.38
5 | B5 | 0.818
6 | B6 | 1.73
